Laboratory results taken from article PMC7870652, “Single-molecule force spectroscopy reveals the dynamic strength of the hair-cell tip-link connection” (Nature Communications, 2021).

Columns and labels:
[1] = molecular target: T1, dimeric full-ectodomain CDH23 fusion protein (mouse, UniProt Q99PF4 24-3064, SNAPtag coupled to a benzylguanine DNA tether or BG-Biotin (force spectroscopy), or to a benzylguanine-PEG15-biotin linker (biolayer interferometry)); experiment: BLI; CDH23 biotinylated on its SNAPtag and immobilised on streptavidin-coated PEG-biotin aminopropylsilane sensors; 10–300 nM PCDH15 in solution; TBS-Tween + Ca^2+ buffer, 2 mM Ca^2+; traces of a drift sensor and of PCDH15 lacking EC1-2 subtracted; dissociation fitted with a single exponential; on-rates measured at 300 nM PCDH15 (effective on-rate); Octet Red384; settings: both partners purified
T1 construct: cadherin-23, mouse, the entire extracellular domain up to the last hydrophilic amino acid before the transmembrane domain (27 EC domains); The two halves carry opposing Fc heterodimerisation domains and the same cadherin ectodomain; also called full-length dimer; CDH23 dimer; source: HEK Expi293 cells, co-transfected, secreted; purified (Ni-NTA or TALON, size-exclusion on Superose 6 Increase)

[2] = molecular target: T2, single-bond CDH23 fusion protein (EC1-5/EC3-5 Fc heterodimer with one EC1-2 binding domain) (mouse, SNAPtag coupled to a benzylguanine DNA tether); experiment: single-molecule force spectroscopy (dual-beam optical tweezers); each protein held on a streptavidin-coated silica bead through a DNA tether on its SNAPtag (R113G proteins and fast loading rates: biotinylated directly with BG-Biotin); room temperature, TBS-TB + Ca^2+ buffer (20 mM Tris, 125 mM NaCl, pH 7.4, 0.02% Tween-20, blocking reagent), 2 mM Ca^2+; loading rates 0.39-377.8 pN s^−1; constants from fits of the …; settings: both partners purified
T2 construct: signal peptide in the construct (native; its cleavage on secretion was confirmed); cadherin-23, mouse, EC1-5; signal peptide in the construct (native, preserved by the deletion); cadherin-23, mouse, the EC1-5 construct (base pairs 408-2066 of NM_023370) from which amino acids 25-228 (EC1-2) were deleted, leaving EC3-5; 408-2066 is 1659 bp (553 codons), probably residues 1-553 of the precursor; …

T1 sequence (Q99PF4 24-3064): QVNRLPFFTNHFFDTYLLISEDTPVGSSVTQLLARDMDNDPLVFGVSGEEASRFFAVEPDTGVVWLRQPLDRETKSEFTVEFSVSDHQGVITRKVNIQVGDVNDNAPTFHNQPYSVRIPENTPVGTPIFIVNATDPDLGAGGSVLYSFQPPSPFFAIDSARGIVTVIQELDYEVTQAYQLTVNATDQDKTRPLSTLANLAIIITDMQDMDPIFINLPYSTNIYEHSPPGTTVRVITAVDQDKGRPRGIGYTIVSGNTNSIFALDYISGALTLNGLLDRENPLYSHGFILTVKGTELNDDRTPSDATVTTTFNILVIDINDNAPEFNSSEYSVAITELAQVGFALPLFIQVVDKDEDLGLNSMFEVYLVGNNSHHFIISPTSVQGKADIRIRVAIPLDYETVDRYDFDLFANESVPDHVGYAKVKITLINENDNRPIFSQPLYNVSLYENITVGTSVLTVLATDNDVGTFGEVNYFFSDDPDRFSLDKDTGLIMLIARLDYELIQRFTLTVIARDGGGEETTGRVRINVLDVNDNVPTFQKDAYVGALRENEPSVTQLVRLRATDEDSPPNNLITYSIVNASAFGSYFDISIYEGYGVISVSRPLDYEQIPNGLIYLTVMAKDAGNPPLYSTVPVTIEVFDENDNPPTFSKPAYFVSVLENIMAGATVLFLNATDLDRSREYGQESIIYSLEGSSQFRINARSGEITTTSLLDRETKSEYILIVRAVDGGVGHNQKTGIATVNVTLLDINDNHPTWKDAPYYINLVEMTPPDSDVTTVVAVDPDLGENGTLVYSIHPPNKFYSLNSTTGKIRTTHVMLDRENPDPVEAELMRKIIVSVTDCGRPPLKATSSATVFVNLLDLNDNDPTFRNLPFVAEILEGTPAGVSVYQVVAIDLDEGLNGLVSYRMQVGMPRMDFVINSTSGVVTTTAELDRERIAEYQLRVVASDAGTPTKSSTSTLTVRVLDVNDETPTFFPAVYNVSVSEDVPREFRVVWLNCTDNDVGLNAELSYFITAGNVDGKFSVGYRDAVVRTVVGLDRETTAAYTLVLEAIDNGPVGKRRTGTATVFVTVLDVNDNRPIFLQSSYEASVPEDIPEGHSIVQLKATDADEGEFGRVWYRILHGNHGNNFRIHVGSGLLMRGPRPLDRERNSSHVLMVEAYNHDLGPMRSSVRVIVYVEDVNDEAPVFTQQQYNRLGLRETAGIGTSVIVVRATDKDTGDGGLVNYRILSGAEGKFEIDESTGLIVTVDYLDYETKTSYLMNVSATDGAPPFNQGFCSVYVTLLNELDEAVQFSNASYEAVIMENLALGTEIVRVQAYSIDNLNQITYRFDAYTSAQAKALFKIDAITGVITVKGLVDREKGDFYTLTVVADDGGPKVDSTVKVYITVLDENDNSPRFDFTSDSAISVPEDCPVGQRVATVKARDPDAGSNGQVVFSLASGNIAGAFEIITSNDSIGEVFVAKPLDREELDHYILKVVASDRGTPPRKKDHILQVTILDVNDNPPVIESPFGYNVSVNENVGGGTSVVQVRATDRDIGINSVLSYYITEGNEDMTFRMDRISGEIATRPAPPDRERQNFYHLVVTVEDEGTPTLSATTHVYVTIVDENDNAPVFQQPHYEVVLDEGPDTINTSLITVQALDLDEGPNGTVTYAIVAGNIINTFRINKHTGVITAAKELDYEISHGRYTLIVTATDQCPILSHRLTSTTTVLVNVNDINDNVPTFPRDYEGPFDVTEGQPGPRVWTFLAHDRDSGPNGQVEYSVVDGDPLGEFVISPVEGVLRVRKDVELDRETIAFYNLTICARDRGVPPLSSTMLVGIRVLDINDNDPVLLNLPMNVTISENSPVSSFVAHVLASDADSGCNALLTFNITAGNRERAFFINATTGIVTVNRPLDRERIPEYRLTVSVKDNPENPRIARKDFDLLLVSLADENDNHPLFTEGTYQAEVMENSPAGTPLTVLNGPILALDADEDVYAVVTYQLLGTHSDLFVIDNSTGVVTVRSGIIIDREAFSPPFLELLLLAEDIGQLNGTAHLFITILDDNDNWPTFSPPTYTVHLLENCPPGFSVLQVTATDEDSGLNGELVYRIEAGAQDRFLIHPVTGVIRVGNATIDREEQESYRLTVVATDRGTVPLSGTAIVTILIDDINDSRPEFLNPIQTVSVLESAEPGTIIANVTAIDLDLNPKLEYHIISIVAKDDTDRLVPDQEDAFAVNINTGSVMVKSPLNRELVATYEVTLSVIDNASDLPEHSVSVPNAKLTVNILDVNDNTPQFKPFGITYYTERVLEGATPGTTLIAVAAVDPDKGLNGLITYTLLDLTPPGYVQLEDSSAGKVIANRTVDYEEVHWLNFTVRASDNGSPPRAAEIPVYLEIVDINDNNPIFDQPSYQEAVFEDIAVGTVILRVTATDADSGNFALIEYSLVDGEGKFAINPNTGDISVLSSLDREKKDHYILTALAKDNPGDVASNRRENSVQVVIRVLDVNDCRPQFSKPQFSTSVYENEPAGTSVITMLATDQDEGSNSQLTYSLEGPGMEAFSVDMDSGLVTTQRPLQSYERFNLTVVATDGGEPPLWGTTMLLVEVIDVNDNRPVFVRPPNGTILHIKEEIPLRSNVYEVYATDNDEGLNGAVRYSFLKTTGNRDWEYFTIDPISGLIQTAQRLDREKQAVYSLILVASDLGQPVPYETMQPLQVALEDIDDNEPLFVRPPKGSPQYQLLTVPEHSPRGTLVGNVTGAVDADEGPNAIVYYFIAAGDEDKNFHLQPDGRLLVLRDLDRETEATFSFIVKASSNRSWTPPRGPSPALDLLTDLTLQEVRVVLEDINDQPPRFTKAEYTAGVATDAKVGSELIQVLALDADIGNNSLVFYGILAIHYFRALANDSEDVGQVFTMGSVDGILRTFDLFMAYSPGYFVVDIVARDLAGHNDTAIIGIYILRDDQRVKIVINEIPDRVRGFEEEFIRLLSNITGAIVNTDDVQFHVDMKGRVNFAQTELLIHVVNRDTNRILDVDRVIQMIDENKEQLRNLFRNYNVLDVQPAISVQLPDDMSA

B1: dimeric full-ectodomain PCDH15 fusion protein (Fc fusion)
chain: not shown
modifications: SNAPtag coupled to a benzylguanine DNA tether, or to BG-Biotin in some force-spectroscopy conditions
notes: protocadherin-15, mouse, the entire extracellular domain up to the last hydrophilic amino acid before the transmembrane domain (11 EC domains); The two halves carry opposing Fc heterodimerisation domains and the same cadherin ectodomain; also called full-length dimer; full-ectodomain mouse PCDH15; source: HEK Expi293 cells, co-transfected, secreted; purified (Ni-NTA or TALON, size-exclusion on …)
**Q.** How did the kon [1] turn out when B1 was run?
**A.** Its kon is 350000 M⁻¹ s⁻¹.

B2: dimeric full-ectodomain PCDH15 R113G^+/+ fusion protein (both strands mutated) (Fc fusion)
chain: not shown
modifications: SNAPtag coupled to BG-Biotin (force spectroscopy without the DNA tether)
notes: A human hereditary deafness mutation put into the mouse protein by site-directed mutagenesis; also called homozygous R113G^+/+; source: HEK Expi293 cells, co-transfected, secreted; purified (Ni-NTA or TALON, size-exclusion on Superose 6 Increase)
**Q.** Which “mean lifetime of the connection at zero force” value [1] does the source give for B2 here?
**A.** Its value is 37 s.

B3: single-bond PCDH15 fusion protein (EC1-5/EC3-5 Fc heterodimer with one EC1-2 binding domain) (Fc fusion)
chain 1: not shown
chain 2: QGDDLGPMFLPCVLVPNTRDCRPLTYQAAIPELRTPEELNPILVTPPIQAIDQDRNIQPPSDRPGILYSILVGTPEDYPRFFHMHPRTAELTLLEPVNRDFHQKFDLVIKAEQDNGHPLPAFASLHIEILDENNQSPYFTMPSYQGYILESAPVGATISESLNLTTPLRIVALDKDIEDTKDPELHLFLNDYTSVFTVTPTGITRYLTLLQPVDREEQQTYTFLITAFDGVQESEPVVVNIRVMDANDNTPTFPEISYDVYVYTDMSPGDSVIQLTAVDADEGSNGEISYEILVGGKGDFVINKTTGLVSIAPGVELIVGQTYALTVQASDNAPPAERRHSICTVYIEVLPPNNQ
modifications: SNAPtag coupled to a benzylguanine DNA tether
**Q.** For B3, which koff [2] is on record?
**A.** Its koff is 0.5 ± 0.1 s⁻¹.
